Patent publication US20250270295A1 (ALBERT LUDWIGS UNIVERSITAET FREIBURG, published 2025)

T1: gp68_ECD_7 (gp68 ΔO-glyc, 1-293 lacking 27-67aa) (HCMV strain AD169, UniProt P16739 65-292)
T1 sequence: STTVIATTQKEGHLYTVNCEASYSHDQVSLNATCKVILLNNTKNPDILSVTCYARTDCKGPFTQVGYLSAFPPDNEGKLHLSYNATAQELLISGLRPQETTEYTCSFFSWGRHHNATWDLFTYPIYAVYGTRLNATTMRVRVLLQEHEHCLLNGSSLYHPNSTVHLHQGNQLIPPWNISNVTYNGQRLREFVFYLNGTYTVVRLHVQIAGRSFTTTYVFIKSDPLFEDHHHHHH

T2: gp68_ECD_4a* (1-144aa) (HCMV strain AD169, UniProt P16739 24-144)
T2 construct: Shortened by a stop codon that arose in cloning, so a C-terminal tag is doubtful
T2 sequence: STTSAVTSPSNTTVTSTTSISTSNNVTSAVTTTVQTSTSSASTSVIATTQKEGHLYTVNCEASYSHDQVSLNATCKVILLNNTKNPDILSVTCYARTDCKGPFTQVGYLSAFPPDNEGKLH

T3: native vFcγR gp34 of HCMV AD169 (infected cells, virions) (HCMV strain AD169, UniProt P16809 24-234)
T3 construct: also called native HCMV gp34 protein; gp34/RL11
T3 sequence (looked up): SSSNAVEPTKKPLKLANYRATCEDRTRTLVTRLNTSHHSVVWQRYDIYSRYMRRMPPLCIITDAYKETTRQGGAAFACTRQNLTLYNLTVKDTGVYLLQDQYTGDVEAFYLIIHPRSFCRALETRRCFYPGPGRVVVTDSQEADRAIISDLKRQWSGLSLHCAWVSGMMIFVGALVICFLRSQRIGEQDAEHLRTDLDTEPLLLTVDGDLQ

T4: soluble human ICOSL ectodomain, V5-His tagged (sICOSL-V5His) (human, UniProt O75144 19-256)
T4 construct: extracellular domain; Control protein with the same tags as the vFcγRs
T4 sequence: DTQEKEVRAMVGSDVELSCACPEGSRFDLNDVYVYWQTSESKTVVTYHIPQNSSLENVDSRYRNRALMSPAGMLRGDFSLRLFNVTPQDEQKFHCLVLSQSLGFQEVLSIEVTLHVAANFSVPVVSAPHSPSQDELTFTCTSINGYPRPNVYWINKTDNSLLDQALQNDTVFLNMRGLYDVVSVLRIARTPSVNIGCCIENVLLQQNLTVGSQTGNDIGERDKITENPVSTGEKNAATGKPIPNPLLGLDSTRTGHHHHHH

T5: gp68 on stably transduced HeLa cells (HCMV strain AD169, UniProt P16739 24-345)
T5 construct: whole, on cells; also called plasma membrane exposed gp68
T5 sequence: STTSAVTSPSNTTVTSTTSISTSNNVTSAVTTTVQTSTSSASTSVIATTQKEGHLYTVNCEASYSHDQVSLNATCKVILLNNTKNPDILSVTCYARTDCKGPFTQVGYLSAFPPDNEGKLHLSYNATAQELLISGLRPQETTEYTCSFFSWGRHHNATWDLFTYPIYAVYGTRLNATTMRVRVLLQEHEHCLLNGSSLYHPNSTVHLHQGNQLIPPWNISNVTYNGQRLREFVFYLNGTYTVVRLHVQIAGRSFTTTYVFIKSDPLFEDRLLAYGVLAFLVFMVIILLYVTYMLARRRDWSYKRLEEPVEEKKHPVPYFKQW

T6: soluble gp34 ectodomain W65F, V5-His tagged (sgp34mtrp-V5-His) (HCMV strain AD169)
T6 construct: signal peptide 1-23 left out; V5 and His tags are in the entry; Forms only monomers and dimers; also called sol gp34mtrp; gp34 1-179 W65F
T6 chain: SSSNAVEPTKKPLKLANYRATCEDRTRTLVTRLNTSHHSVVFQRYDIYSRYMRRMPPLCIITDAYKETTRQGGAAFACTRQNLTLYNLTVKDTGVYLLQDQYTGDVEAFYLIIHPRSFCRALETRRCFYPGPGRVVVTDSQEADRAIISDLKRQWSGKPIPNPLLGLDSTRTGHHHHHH

T7: soluble gp34 wild type ectodomain, V5-His tagged (sgp34wt-V5-His) (HCMV strain AD169)
T7 construct: Entry holds signal peptide 1-23 (left out), ectodomain, V5 tag and His tag; Forms monomers, dimers and higher oligomers; also called sol gp34 wt; gp34 1-179
T7 chain: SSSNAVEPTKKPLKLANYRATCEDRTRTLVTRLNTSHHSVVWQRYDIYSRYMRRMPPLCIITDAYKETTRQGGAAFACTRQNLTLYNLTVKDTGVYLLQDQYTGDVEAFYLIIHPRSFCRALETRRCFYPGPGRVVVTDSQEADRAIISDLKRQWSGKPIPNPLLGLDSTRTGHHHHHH

T8: gp34wt on stably transduced HeLa cells (HCMV strain AD169, UniProt P16809 24-234)
T8 construct: whole, on cells; also called plasma membrane exposed gp34wt
T8 sequence: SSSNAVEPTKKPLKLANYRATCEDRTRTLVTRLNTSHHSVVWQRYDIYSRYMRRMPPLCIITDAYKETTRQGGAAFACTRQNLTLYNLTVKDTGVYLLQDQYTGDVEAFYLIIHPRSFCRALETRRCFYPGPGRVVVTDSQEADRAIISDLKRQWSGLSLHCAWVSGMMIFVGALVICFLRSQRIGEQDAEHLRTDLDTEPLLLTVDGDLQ

T9: gp34mtrp (W65F) on stably transduced HeLa cells (HCMV strain AD169, UniProt P16809 24-234)
T9 construct: whole, on cells; also called plasma membrane exposed gp34mtrp
T9 sequence: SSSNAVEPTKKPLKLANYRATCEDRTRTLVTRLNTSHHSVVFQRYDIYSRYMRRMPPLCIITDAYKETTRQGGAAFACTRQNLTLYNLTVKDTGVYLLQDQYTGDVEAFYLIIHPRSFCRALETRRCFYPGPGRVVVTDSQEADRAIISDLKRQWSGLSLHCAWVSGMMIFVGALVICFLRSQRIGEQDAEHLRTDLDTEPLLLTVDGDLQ


What was measured:
gp68_ECD_4b (1-152) = gp68_ECD_4b (1-152) (HCMV strain AD169, UniProt P16739 24-152); test: ELISA, coated supernatant
[1] = biological target: T1, gp68_ECD_7 (gp68 ΔO-glyc, 1-293 lacking …); test: ELISA, coated supernatant
gp68_ECD_4a* (1-144aa) = biological target: T2, gp68_ECD_4a* (1-144aa); test: ELISA, coated supernatant
gp68_ECD_1 (1-201 aa) = biological target: T10, gp68_ECD_1 (1-201 aa) (HCMV strain AD169, UniProt P16739 24-201); test: ELISA, coated supernatant
T10 construct: signal peptide 1-23 left out

gp68_ECD_wt = biological target: T11, gp68_ECD_wt (HCMV strain AD169, UniProt P16739 24-292); test: ELISA, coated supernatant
T11 construct: Called 'same antigen as used for immunization'; used as HEK293T supernatant; also called gp68wt extracellular domain

[2] = biological target: T12, soluble gp68 ectodomain, V5-His tagged (sgp68-V5-His) (HCMV strain AD169, UniProt P16739 24-292); test: ELISA
T12 construct: V5 and His tags are in the entry; also called sol gp68; sgp68wt

[3] = biological target: T3, native vFcγR gp34 of HCMV AD169 …; test: IP from infected cells; Fc-mediated background per the filing
Procedure: Finally, anti-vFcγR gp68 mAbs were used for immunoprecipitation experiments. MRC5 fibroblasts were infected with HCMV AD169wt strain or a virus mutant lacking vFcγR gp68 (Δgp68) for 4 days with MOI 3. Infected cells were metabolically labeled with ³⁵S for 2 hours at 37° C., washed and lysed using NP40-lysis buffer. Lysates were incubated with indicated mAbs or human IgG Fc-fragment to pulldown vFcγR gp68 specifically or both HCMV-encoded vFcγRs gp34, gp68 using human IgG-Fc-fragment to precipitated Fc-binding proteins. Samples were deglycosylated by EndoH and separated on SDS-page gradient gel.
MRC5 fibroblast were infected with MOI 2. Four days post infection cells were metabolically labelled and following lysates were incubated with indicated anti-gp68 mAbs or human IgG-Fc-fragment for precipitation of vFcγR gp68.

[4] = biological target: T4, soluble human ICOSL ectodomain, V5-His …; test: western blot
[5] = biological target: T5, gp68 on stably transduced HeLa cells; test: flow cytometry, HeLa, 1 µg/ml
[6] = biological target: T6, soluble gp34 ectodomain W65F, V5-His …; test: ELISA mtrp
[7] = biological target: T7, soluble gp34 wild type ectodomain, …; test: sgp34wt pre-incubated with mAb, ELISA on CRP
Source text: In addition, binding of sgp34wt to immobilized CRP in absence of any mAb is depicted.

[8] = biological target: T7, soluble gp34 wild type ectodomain, …; test: sgp34wt pre-incubated with mAb, ELISA on FcRn
Procedure: Furthermore, the gp34wt and FcRn interaction was investigated whereby various anti-gp34 mAbs were analyzed and their potential to block this interaction was identified. Experiments were performed as described before for IgG-blocking ELISA, but this time using immobilized FcRn as a novel gp34-ligand.
In addition, binding of sgp34wt to immobilized FcRn in absence of any mAb is depicted.

[9] = biological target: T8, gp34wt on stably transduced HeLa cells; test: flow cytometry, HeLa, 1 µg/ml
[10] = biological target: T9, gp34mtrp (W65F) on stably transduced …; test: flow cytometry, HeLa, 1 µg/ml
[11] = biological target: T7, soluble gp34 wild type ectodomain, …; test: blocking of sgp34wt binding to immobilized human IgG, ELISA
Procedure: FIG. 44: IgG blocking ability by anti-gp34mtrp mAbs. vFcγR gp34 is an HCMV encoded IgG-Fc-binding. Anti-gp34mtrp-specific mAbs (in titration) were pre-incubated with recombinant, sgp34wt (constant amount 1 μg/ml) and added to IgG-immobilized ELISA plates. […] Dose-dependent potential of mAbs used for blocking is indicated. Effect by non-specific mouse IgG isotype IgG1 is shown. In addition, binding of sgp34wt to immobilized IgG in absence of any mAb is depicted.
To test if anti-gp34wt specific mAbs can interfere with IgG-binding ability of gp34 and human IgG. Therefore, recombinant, sgp34wt was pre-incubated with indicated anti-gp34wt specific mAbs, mouse IgG isotype or PBS only. Next, antibody bound sgp34wt was incubated on IgG-immobilized ELISA plates.
Anti-gp34wt-specific mAbs (in titration) were pre-incubated with recombinant, sgp34wt (constant amount 1 μg/ml) and added to IgG-immobilized ELISA plates. […] Dose-dependent potential of mAbs used for blocking is indicated. […] In addition, binding of sgp34wt to immobilized IgG in absence of any mAb is depicted.

Row | Binder | binding result (gp68_ECD_4b (1-152)) | binding result [1] | binding result (gp68_ECD_4a* (1-144aa)) | binding result (gp68_ECD_1 (1-201 aa)) | binding result (gp68_ECD_wt) | binding result [2] | binding result [3] | binding result [4] | binding result [5] | binding result [6] | percent blocking of gp34-CRP-binding [7] | percent blocking of gp34 FcRn-binding [8] | binding result [9] | binding result [10] | IC50 [11]
1 | gp68.05 (antibody, V domains shown, mouse IgG1 hybridoma mAb; leader in entries; also called anti gp68 clone 68.05) VH: QVKLEESGAELMKPGASVKISCTATGYTFSGYWIEWVKQRPGHGLEWIGEILPGSGGTNYNEKFKGKATFTADTSSNTAYMQLSSLTSEDSAVYYCARGIHYFGYYYFDYWGQGTTLTVSSAKTTPPSVY VL: DIVLTQTPSSLSASLGDRVTISCRASQDISNYLNWYQLKPDGTVKLLIYYTSRLHSGVPSRFSGSGSGTDYSLTISNLEQEDIATYFCQQGNTLPPTFGGGTKLEIKRADAAPTVS | no binding (tested: 1 µg/ml) | binds | no binding (tested: 1 µg/ml) | no binding (tested: 1 µg/ml) | binds | binds | binds | no binding |  |  |  |  |  |  | 
2 | gp68.06 (antibody, V domains shown, mouse IgG1 hybridoma mAb; leader in entries; also called anti gp68 clone 68.06) VH: QVKLEQSGAELMKPGASVKISCTATGYTFSGYWIEWVKQRPGHGLEWIGEILPGSGGTNYNEKFKGKATFTADTSSNTAYMQLSSLTSEDSAVYYCARGIHYFGYYYFDYWGQGTTLTVSSAKTTPPSVY VL: DIVLTQSPSSLSASLGDRVTISCRASQDISNYLNWYQLKPDGTVKLLIYYTSRLHSGVPSRFSGSGSGTDYSLTINNLEQEDIATYFCQQGNTLPPTFGGGTKLEIKRADAAPTVS | no binding (tested: 1 µg/ml) | binds | no binding (tested: 1 µg/ml) | no binding (tested: 1 µg/ml) | binds | binds | binds | no binding |  |  |  |  |  |  | 
3 | gp68.01 (antibody, V domains shown, mouse IgG1 hybridoma mAb; leader in entries) VH: EVKLLESGPELVKPGSSVKISCKASGYSFADHIILWVKQSHGKSLEWIGNINPYSGNTIYNLNFKGKATLTVDKSSSTAYMQLNSLTSEDSAVYYCARIEGYYSMDYWGQGTSVTVSS VL: DIVMTQTPLSLPVSLGDQASISCRSSQSIVHSNGNTYLEWYLQKPGQSPKVLIYKVSKRFSGVPDRFSGSGSGTDFTLKISRVEAEDMGVYYCFQGSHVPLTFGAGTKLELK |  | binds |  | binds | binds | binds |  | no binding | binds |  |  |  |  |  | 
4 | gp68.02 (antibody, V domains shown, mouse IgG1 hybridoma mAb; leader in entries) VH: EVKLLQSGPELVKPGSSVKISCKASGYSFADHIILWVKQSHGKSLEWIGNINPYSGNTIYNLNFKGKATLTVDKSSSTAYMQLNSLTSEDSAVYYCARIEGYYSMDYWGQGTSVTVSS VL: DIVLTQTPLSLPVSLGDQASISCRSSQSIVHSNGNTYLEWYLQKPGQSPKVLIYKVSKRFSGVPDRFSGSGSGTDFTLKISRVEAEDMGVYYCFQGSHVPLTFGAGTKLELK |  | binds |  | binds | binds | binds |  | no binding | binds |  |  |  |  |  | 
5 | gp34mtrp.01 (antibody, V domains shown, mouse IgG1 hybridoma mAb; leader in entries; also called anti gp34 clone mtrp.01) VH: QVKLEESGAELVKPGASVKLSCTGSGFNIKDIYMDWVKQRPEQGLEWIGRIDPANGNSKYDPKFQGKATITVDTSSNTAYLQLSSLTSEDTAVYYCASYYGSSYNYWGQGTTLTVSS VL: DIVITQTPPSVPVTPGESVSISCRSSKSLLHSNGNTYLYWFLQRPGQSPQLLIYRMSNLASGVPDRFSGSGSGTAFTLRISRVEAEDVGVYYCMQHLEYPLTFGAGTKLELKRADAAPTVS |  |  |  |  |  |  |  |  |  | binds | ~50% | ≤ 50% | binds | binds | 0.239 µg/mL
6 | gp34mtrp.02 (antibody, V domains shown, mouse IgG1 hybridoma mAb; leader in entries; also called anti gp34 clone mtrp.02) VH: QVKLEQSGAELVKPGASVKLSCTGSGFNIKDIYMDWVKQRPEQGLEWIGRIDPANGNSKYDPKFQGKATITVDTSSNTAYLQLSSLTSEDTAVYYCASYYGSSYNYWGQGTTLTVSS VL: DIVITQTPPSVPVTPGESVSISCRSSKSLLHSNGNTYLYWFLQRPGQSPQLLIYRMSNLASGVPDRFSGSGSGTAFTLRISRVEAEDVGVYYCMQHLEYPLTFGAGTKLELKRADAAPTVS |  |  |  |  |  |  |  |  |  | binds | ~50% | ≤ 50% | binds | binds | 0.33 µg/mL
7 | gp68.03 (antibody, V domains shown, mouse IgG1 hybridoma mAb; leader in entries; VH entry see recheck; also called anti gp68 clone 68.03) VH: EVKLEESGPEVKKPGETVKISCKASGYTFTNYGMSWLRQAPGKGLKWMGWINTYTGEPTYADDFKGRFAFSLETSASTAYFQINNLKDEDTTTYFCARRAFGGLDYWGQGTSVTVFS VL: DIVLTQTPLSLPVSLGDQASISCRSSQSIVHSNGNTYLEWYLQKPGQSPKVLIYKVSKRFSGVPDRFSGSGSETDFTLKISRVEAEDMGVYYCFQGSHVPLTFGAGTKLELKR | no binding (tested: 1 µg/ml) |  | no binding (tested: 1 µg/ml) | no binding (tested: 1 µg/ml) |  |  |  | no binding |  |  |  |  |  |  | 
